Test results: publication PMC10202413

Molecular target: T1, protein tyrosine kinase 7 (PTK-7) on HCT-116 cells (UniProt Q13308)
T1 sequence: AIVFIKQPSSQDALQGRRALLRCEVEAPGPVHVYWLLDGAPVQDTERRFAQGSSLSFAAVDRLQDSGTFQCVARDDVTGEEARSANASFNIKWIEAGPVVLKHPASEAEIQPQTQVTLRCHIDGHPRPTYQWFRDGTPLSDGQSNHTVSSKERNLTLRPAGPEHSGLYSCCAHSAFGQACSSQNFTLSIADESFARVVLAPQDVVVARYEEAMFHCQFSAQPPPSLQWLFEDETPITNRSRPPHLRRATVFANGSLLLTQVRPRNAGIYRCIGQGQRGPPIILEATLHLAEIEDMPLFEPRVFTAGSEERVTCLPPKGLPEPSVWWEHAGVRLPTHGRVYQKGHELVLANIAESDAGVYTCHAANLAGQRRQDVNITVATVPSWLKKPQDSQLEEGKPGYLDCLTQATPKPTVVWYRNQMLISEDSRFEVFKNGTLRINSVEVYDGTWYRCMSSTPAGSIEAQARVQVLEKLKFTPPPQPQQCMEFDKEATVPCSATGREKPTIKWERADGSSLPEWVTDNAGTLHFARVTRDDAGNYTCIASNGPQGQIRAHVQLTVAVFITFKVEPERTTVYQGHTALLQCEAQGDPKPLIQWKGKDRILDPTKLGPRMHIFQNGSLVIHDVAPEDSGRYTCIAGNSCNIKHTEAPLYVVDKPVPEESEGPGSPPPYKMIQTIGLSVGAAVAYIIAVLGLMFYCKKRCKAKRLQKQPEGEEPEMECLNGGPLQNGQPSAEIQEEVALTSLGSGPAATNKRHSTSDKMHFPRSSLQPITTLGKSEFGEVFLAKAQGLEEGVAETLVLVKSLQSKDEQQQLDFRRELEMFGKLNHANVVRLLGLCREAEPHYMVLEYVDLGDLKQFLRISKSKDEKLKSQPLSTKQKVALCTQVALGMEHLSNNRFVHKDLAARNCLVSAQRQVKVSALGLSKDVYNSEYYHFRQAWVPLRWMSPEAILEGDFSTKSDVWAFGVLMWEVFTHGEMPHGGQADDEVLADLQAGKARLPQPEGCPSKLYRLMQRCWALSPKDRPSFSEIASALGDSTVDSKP
Assay: flow cytometry, cell binding
Conditions: 5 mM Mg2+, Whole cells washed in D-PBS with 4.5 g/L glucose and 5 mM MgCl2, 300,000 cells in 200 ul binding buffer (composition and pH not stated), on ice 30 min …

Sequence | Kd (5' amino coupled to p-SCN-Bn-NOTA) [nM] | Kd [nM]
ATCTAACTGCTGCGCCGCCGGGAAAATACTGTACGGTTAGA [NOTA-SGC8] | 3.49 | –
ATCTAACTGCTGCGCCGCCGGGAAAATACTGTACGGTTAGA [SGC8] | – | 1.88
